Consider four proteins from PMC7267773, “CCDC61/VFL3 Is a Paralog of SAS6 and Promotes Ciliary Functions” (Structure(London, England:1993), 2020).

Series [1] concerns the molecule itself. As to the kind of experiment: SEC-MALS; Superdex S200 10/300, 10mM Tris-HCl pH 7.4, 150mM NaCl, room temperature; loaded at 1, 6.5 and 65 mg/ml (wild type) and 1, 6.8 and 73 mg/ml (F129E/D130A).
Series [2] deals with the molecule itself. As to the kind of experiment: crystal structure; zCCDC61^1-170, 4.62 mg/ml, 100 mM Citric acid pH 5.0, 1 M LiCl, sitting drop, 20°C.
Series [3] deals with the molecule itself. Kind of series: AUC; sedimentation equilibrium, 12, 4 and 1.3 mg/ml, 11,600, 19,700 and 34,000 rpm, 4°C; dimer to monomers.
Series [4] deals with the molecule itself. Kind of series: AUC; velocity sedimentation, approximately 480 μM (7.9 mg/ml), 20 mM Tris-HCl pH 8.0, 150 mM NaCl, 2 mM DTT, 50,000 rpm, 4°C; c(s) distribution.

B1: His6-lipoyl-zCCDC61^1-170 (domain or fragment, zebrafish (Danio rerio), UniProt Q08CF3 1-170, looked up)
chain: MEVGTVVQEEMKFRGSEFAVKVEMAERLLIVEISDVVTADQWRGEFGPAYIEDLTRKTGNFKQFPVFCSMLESAVHKSSDSVTLDLLTYSDLELLRNRKAGVVGRPRAQPQSPALSAKRYLILIYTVEFDRIHYPLPLPYLGKPDPAELQKEIRALRSELKTLGLRGDHK
notes: zebrafish (Danio rerio) CCDC61, residues 1-170; The His6-lipoyl domain tag was retained for SEC-MALS to stabilize the protein at high concentrations; also called Lipo-zCCDC61^1-170; wild-type; source: E. coli C41 in 2xTY, purified (Ni-NTA, SEC, HiTrap Q-FF); not shown: His6, N-terminal, kept; lipoyl domain (Bacillus stearothermophilus dihydrolipoamide acetyltransferase), N-terminal, kept
As to B1, the binding result in series [1] is recorded as “binds”.

B2: His6-lipoyl-zCCDC61^(1-170; F129E/D130A) (domain or fragment, zebrafish (Danio rerio), UniProt Q08CF3 1-170, looked up)
chain: MEVGTVVQEEMKFRGSEFAVKVEMAERLLIVEISDVVTADQWRGEFGPAYIEDLTRKTGNFKQFPVFCSMLESAVHKSSDSVTLDLLTYSDLELLRNRKAGVVGRPRAQPQSPALSAKRYLILIYTVEEARIHYPLPLPYLGKPDPAELQKEIRALRSELKTLGLRGDHK
notes: zebrafish (Danio rerio) CCDC61, residues 1-170, with F129E and D130A; also called Lipo-zCCDC61^(1-170); head-to-head dimerization-deficient mutant; source: E. coli C41 in 2xTY, purified (Ni-NTA, SEC, HiTrap Q-FF); not shown: His6, N-terminal, kept; lipoyl domain (Bacillus stearothermophilus dihydrolipoamide acetyltransferase), N-terminal, kept
Turning to B2, the binding result in series [1] is on record as “binds”.

B3: zebrafish CCDC61 (residues 1–170; zCCDC61^1-170), lipoyl-domain tag removed (domain or fragment, zebrafish (Danio rerio))
chain: GGSMEVGTVVQEEMKFRGSEFAVKVEMAERLLIVEISDVVTADQWRGEFGPAYIEDLTRKTGNFKQFPVFCSMLESAVHKSSDSVTLDLLTYSDLELLRNRKAGVVGRPRAQPQSPALSAKRYLILIYTVEFDRIHYPLPLPYLGKPDPAELQKEIRALRSELKTLGLRGDHK
notes: extra residues Gly-Gly-Ser left at the N-terminus after the tag was cleaved with tev protease; zebrafish (Danio rerio) CCDC61, residues 1-170, head and part of the coiled-coil domain; Homo-tetramer in the crystal; source: E. coli C41, purified (Ni-NTA, tev cleavage, HisTrap FF, HiTrap Q HP flow through, PD-10); not shown: His tag, N-terminal, cleaved; lipoyl domain (Bacillus stearothermophilus …)
As to B3, the “stoichiometry N” value in series [2] came to 4.

B4: N-terminal head domain of human CCDC61 (hCCDC61^1-143) (domain or fragment)
chain: GSMDQPAGLQVDYVFRGVEHAVRVMVSGQVLELEVEDRMTADQWRGEFDAGFIEDLTHKTGNFKQFNIFCHMLESALTQSSESVTLDLLTYTDLESLRNRKMGGRPGSLAPRSAQLNSKRYLILIYSVEFDRIHYPLPLPYQGKP
notes: extra residues Gly-Ser left at the N-terminus after the His-GST tag was cleaved with tev protease; gene codon optimized for E. coli and synthesized; The crystal (PDB 6HXT) was of the seleno-methionine-substituted protein; also called hCCDC61 head domain; source: E. coli BL21(DE3), purified (GSTrap, tev cleavage, HisTrap flow through, HiTrap Q, PD-10); not shown: His tag, N-terminal, cleaved; GST, …
On to B4, for which, in series [3], the Kd was 170 ± 18 µM. For the same protein, in series [4], the “stoichiometry N” value is 2.
